Test results: patent US20040053383A1, “Crystals of cytochrome P450 2C9, structures thereof and their use” (ASTEX TECHNOLOGY LTD., priority 2001, published 2004)

B1: Clone 1155: 2C9-FGloop with the substitution Lys206Glu (protein)
chain: MAKKTSSKGRPPGPTPLPVIGNILQIGIKDISKSLTNLSKVYGPVFTLYFGLKPIVVLHGYEAVKEALIDLGEEFSGRGIFPLAERANRGFGIVFSNGKKWKEIRRFSLMTLRNFGMGKRSIEDRVQEEARCLVEELRKTKASPCDPTFILGCAPCNVICSIIFHKRFDYKDQQFLNLMEKLNENIEILSSPWIQVYNNFPALLDYFPGTHNKLLKNVAFMKSYILEKVKEHQESMDMNNPQDFIDCFLMKMEKEKHNQPSEFTIESLENTAVDLFGAGTETTSTTLRYALLLLLKHPEVTAKVQEEIERVIGRNRSPCMQDRSHMPYTDAVVHEVQRYIDLLPTSLPHAVTCDIKFRNYLIPKGTTILISLTSVLHDNKEFPNPEMFDPHHFLDEGGNFKKSKYFMPFSAGKRICVGEALAGMELFLFLTSILQNFNLKSLVDPKNLDTTPVVNGFASVPPFYQLCFIPVHHHH
B2: 2C19: human cytochrome P450 2C19, published data (protein, UniProt P33261 1-490, looked up)
Cytochrome P450 2C19: MDPFVVLVLCLSCLLLLSIWRQSSGRGKLPPGPTPLPVIGNILQIDIKDVSKSLTNLSKIYGPVFTLYFGLERMVVLHGYEVVKEALIDLGEEFSGRGHFPLAERANRGFGIVFSNGKRWKEIRRFSLMTLRNFGMGKRSIEDRVQEEARCLVEELRKTKASPCDPTFILGCAPCNVICSIIFQKRFDYKDQQFLNLMEKLNENIRIVSTPWIQICNNFPTIIDYFPGTHNKLLKNLAFMESDILEKVKEHQESMDINNPRDFIDCFLIKMEKEKQNQQSEFTIENLVITAADLLGAGTETTSTTLRYALLLLLKHPEVTAKVQEEIERVIGRNRSPCMQDRGHMPYTDAVVHEVQRYIDLIPTSLPHAVTCDVKFRNYLIPKGTTILTSLTSVLHDNKEFPNPEMFDPRHFLDEGGNFKKSNYFMPFSAGKRICVGEGLARMELFLFLTFILQNFNLKSLIDPKDLDTTPVVNGFASVPPFYQLCFIPV

Legend:
P450 2C9 [1] = type: biochemical, human
Procedure: Activity assays on P450 2C9 were performed in a 96-well plate assay format with a Fluoroscan Ascent FL Instruments (Labsystem), using the 7-methoxy-4-(trifluoromethyl)-coumarin as a fluorescent substrate.

P450 2C9 [2] = assay: Functionality assay with methoxy-4-(trifluoromethyl)-coumarin as fluorescent substrate (Examples 6 and 8); type: biochemical, human; conditions: 140 μM methoxy-4-(trifluoromethyl)-coumarin, 37° C.
Procedure: Activity assays on P450 2C9 were performed in a 96-well plate assay format with a Fluoroscan Ascent FL Instruments (Labsystem), using the methoxy-4-(trifluoromethyl)-coumarin as a fluorescent substrate.
(§1) Fifteen pmoles of P450 were reconstituted with 0.1 unit of purified human oxidoreductase, in presence of 140 μM of substrate methoxy-4-(trifluoromethyl)-coumarin, a NADPH regenerating system that includes 0.15 mM NADP^+, 0.38 mM Glucose-6-phosphate and 2.9 unit/ml glucose-6-phosphate dehydrogenase in 170 μl final volume of 25 mM KPi, pH 7.4, 0.38 mM MgCl2 Incubations were performed at 37° C. for several minutes and 7-hydroxy-4-(trifluoromethyl)-coumarin was used as metabolite standard to determinate the metabolic rate. The excitation and emission wavelengths used were respectively 409 and 530 nm.
as §1, with “MgCl2.” for “MgCl2”, “The excitation and emission wavelengths used were respectively 409 and 530 nm.” left out

2C19 = 2C19 (Homo sapiens, UniProt P33261); conditions: cited from earlier work

Molecule | 7-MFC (P450 2C9 [1]) | activity with 2C9 substrate (P450 2C9 [2]) | 7-MFC (2C19)
B1 | 0.23 min⁻¹ | 0.083 pmol/min/pmol P450 | 
B2 |  |  | 2.98 min⁻¹
